Test results: the DeepSol protein solubility set

Test: soluble on expression in E. coli; label from the status in PepcDB or PDB records

With “GPGSMSTPNLDALLGVPLAAELVARAGGLLALCKLSDAALRMLGTEEFQSIASSSRARQLHAGLLLKAPLFTNAFGDEEEVDTTDRKAAQKGAAQLGRKCALVAKADLAGAFSDGSLGEAEKEKLNAAFTRLLAEGKVTAEDTQALAAPFVYVHGDAAKHRRGGVKERKKRESQQESISVVARATQRVRMGVSEEEQVQQLLQREDIRSEFAKERAQQLLKESRKRARESVHDEYDDLQNISL” as the sequence, how does the “soluble on expression in E. coli” value read?
Its value is “not soluble”.

Which “soluble on expression in E. coli” value does the source give for “MHHHHHHSSMDDPIGLFVMRPQDGEVTVGGSITFSARVAGASLLKPPVVKWFKGKWVDLSSKVGQHLQLHDSYDRASKVYLFELHITDAQPAFTGGYRCEVSTKDKFDCSNFNLTVHEAM” here?
Its value is “soluble”.

With “MSDDGGFLSSQSSRELTEDDHEKLAKQTSISDFKRNKLEIDARKNWDKFYHRNKNNFFKDRNWSAEDLKMMCPDIDFEKEISYLEAGCGVGNMLFPLVAEIPNLKLFAFDFSDNAVKLLEERAKELELSVATSVVDLSIPSVSSPFEEQVDLATLIFVLSAIHPEKHQISAENVRKMIKIGGSVVVRDYGINDHAMIRFGREARISDRFYVRQDGTRAYYFDLNELSEVFEKSGFRCVRKEYLHRMTVNHQKGLKAPRIFVQARFIRES” as the sequence, how does the “soluble on expression in E. coli” value read?
The value was “not soluble”.

With “GVFTYESEFTSEIPPPRLFKAFVLDADNLVPKIAPQAIKHSEILEGDGGPGTIKKITFGEGSQYGYVKHKIDSIDKENYSYSYTLIEGDALGDTLEKISYETKLVASPSGGSIIKSTSHYHTKGNVEIKEEHVKAGKEKASNLFKLIETYLKGHPDAYN” as the sequence, how does the “soluble on expression in E. coli” value read?
Its value is “soluble”.

With “MGSDKIHHHHHHMINIGLTGWGDHYSLYEDLERQTDKLKTYAGHFPVVELDATYYAIQPERNILKWIKETPDTFEFVVKIHQALTLHADYKTFADTRQELFDQFKNMLEPLHTQKKLAMVLVQFPPWFDCNAQNIKYILYVRQQLQAFPMCVEFRHQSWFSDAFKEQTLAFLTEHQIIHAVVDEPQVKDGSVPLVNRITNEIAFVRYHGRNHYGWTKKDMSDQEWRDVRYLYDYNEQELIDLAQKAQILAQKAKKVYVIFNNNSGGHAANNAKTYQRLLNIEYEGLAPQQLKLF” as the sequence, how does the “soluble on expression in E. coli” value read?
The value was “not soluble”.

Which “soluble on expression in E. coli” value does the source give for “MGSDKIHHHHHHSVQSIINNPAVDPHDYEPTTKVGKSVASADLVVASGIGYDGWMDKVVKSADKSKNYLRVADDLMNKKEGDNEHIWYDPRTMSKLANTLADKFAKKDPADKATFKANAKKYIASLDNLNTLINKLKSKVNGQLVDVSEPVFGYALDYLGYKVNDDHFSKSTEDGTDYSAKDIHGIETDIKEKKIAFFVNNIQASSKTVNQLVKLAEQNNVPVLKVTETLPKGKNYRTWMTSQYQQLEKIQDQATNSAK” here?
The value was “not soluble”.

Which “soluble on expression in E. coli” value does the source give for “PRTRECDYCGTDIEPGTGTMFVHKDGATTHFCSSKCENNADLGREARNLEWTDTARGEAGEAEDEA” here?
Its value is “soluble”.

Which “soluble on expression in E. coli” value does the source give for “MSHVSLQEFLKTEPDGTLEVVAEQYNTTLLEVVRNLPSSTVVPGDKFDTVWDTVCEWGNVTTLVHTADVILEFSGELPSGFHRHGYFNLRGKHGMSGHIKAENCTHIALIERKFMGMDTASILFFNKEGSAMLKIFLGRDDHRQLLSEQVSAFHTLAASLKEHA” here?
The value was “soluble”.

For “TTGSDGKATFDVTQNETYGLATPLTATLMRDTTKSATMDVIFTVITSPNSPKAKYWGHMPDTFTSRAGVTFKRPLLAAEATLGSSVSNNNESWSYLFYTNKVTPDCPVEYQPRLNELQGLYNDHPGGTILTDLGLPITAGSGNWWTYEMSTTDALTWYYGVINLKTGQSTTTINGYALMLCL”, which “soluble on expression in E. coli” value is on record?
The value was “not soluble”.

For “GAMGMDEGDGEGNILPIMQSIMQNLLSKDVLYPSLKEITEKYPEWLQSHRESLPPEQFEKYQEQHSVMCKICEQFEAETPTDSETTQKARFEMVLDLMQQLQDLGHPPKELAGEMPPGLNFDLDAL”, which “soluble on expression in E. coli” value is on record?
The value was “soluble”.

For “MGSDKIHHHHHHMITIVKKVRNEIIRKIYRIPLFSNTADIAYQTAITQHTNHLPYLADSDLSLVKNLQEEGIVITSLTELSIPSTMEMLQAAKLLKTKIPINIAGNQNEFTVHASSEQIREHSSIFFWGLQERLLNIVENYLGLSVAYHGAYFRRDINNQVRKKSRLWHLDKEDRKMLKIIIYLNDVNEDGGPFEYIPKSLTSHISKSLKYDDTYIKDETMDQVVSSSYWQPCTGKSGAVIFVDTANIFHRGKLPLSSDRLSIFFDYTTRQPKHPFYCKSSLSNKDLLAVSAELSENQKQCIFWQHNYN”, which “soluble on expression in E. coli” value is on record?
The value was “not soluble”.

With “MGSDKIHHHHHHMTSKPSTSDGRAHSISHVPGTHMRGTSASHSPRPFRPCADCTCSPGLLSRQGRRASLFLRQLENSRRSSSMLLNELKGAGGGSSAGNGSVYSCDSLCAVNREVNTTDRLLKLRQEMKKHDLCCYIVPSCDEHQSEYVSLRDQRRAFISGFSGSAGVACITRDLLNFNDDHPDGKSILSTDGRYFNQARQELDYNWTLLRQNEDPITWQEWCVREALEMAKGLGNKEGMVLKIGIDPKLITFNDYVSFRKMIDTKYDAKGKVELVPVEENLVDSIWPDFETLPERPCNDLLLLKYEFHGEEFKDKKEKLLKKLNDKASSATTGRNTFIVVALDEICWLLNLRGSDIDYNPVFFSYVAINEDETILFTNNPFNDDISEYFKINGIEVRPYEQIWEHLTKITSQASSAEHEFLIPDSASWQMVRCLNTSTNANGAIAKKMTAQNFAIIHSPIDVLKSIKNDIEIKNAHKAQVKDAVCLVQYFAWLEQQLVGREALIDEYRAAEKLTEIRKTQRNFMGNSFETISSTGSNAAIIHYSPPVENSSMIDPTKIYLCDSGSQFLEGTTDITRTIHLTKPTKEEMDNYTLVLKGGLALERLIFPENTPGFNIDAIARQFLWSRGLDYKHGTGHGIGSFLNVHEGPMGVGFRPHLMNFPLRAGNIISNEPGYYKDGEYGIRIESDMLIKKATEKGNFLKFENMTVVPYCRKLINTKLLNEEEKTQINEYHARVWRTIVHFLQPQSISYKWLKRETSPL” as the sequence, how does the “soluble on expression in E. coli” value read?
The value was “not soluble”.

For “MRSLARGVTTNISKLIEARPKNTGQTVYLTHVKWVTGKSQLEHYFKRYGSIQSVNMFYDPDTGLHRGFASITFDSKDGANKAIEQRPHVIDGDRVDVEPYIPLISKNKKKDLML”, which “soluble on expression in E. coli” value is on record?
The value was “not soluble”.

For “MTSPFKVVAVSGGTYRPSRTLVLTQALIAELGQSLPIDSRVIELTDIAAPLGATLARNQAPAELQAVLDEIESADLLLVASPVYRGSYPGLLKHLFDLIDLNALIDTPVLLAATGGTERHALVLDHQLRPLFSFFQAITLPIGVYASEADFDNYRIVSEPLKARIRLAAERAAPLFGGRSELLKIALEHHHHHH”, which “soluble on expression in E. coli” value is on record?
Its value is “not soluble”.

For “QQFFFENDALGQSSTDFATNFLNLWDNNREQLLNLYSPQSQFSVSVDSTIPPSTVTDSDQTPAFGYYMSSSRNISKVSSEKSIQQRLSIGQESINSIFKTLPKTKHHLQEQPNEYSMETISYPQINGFVITLHGFFEETGKPELESNKKTGKNNYQKNRRYNHGYNSTSNNKLSKKSFDRTWVIVPMNNSVIIASDLLTVRAYSTGAWKTASIAIAQAAGS”, which “soluble on expression in E. coli” value is on record?
Its value is “soluble”.

With “MSLKRLTSRRQKGGGCPDLTIRAHHLLCMRGFQGYGYSEEFTENLARIIHEIKGNPSAFLMIVDFPDDICRACPFMDGLRCLRDEERIRSMDRRVLELLKLESGCMVTFHDIEDALLALITSGKIMEICGECSWMDLCLIHREGHHHHHH” as the sequence, how does the “soluble on expression in E. coli” value read?
The value was “not soluble”.

For “LDGVLVPESGILVSVGQDVDSVNDYASALGTIPAGVTNYVGIVNLDGLNSDADAGAGRNNIAELANAYPTSALVVGVSMNGEVDAVASGRYNANIDTLLNTLAGYDRPVYLRWAYEVDGPWNGHSPSGIVTSFQYVHDRIIALGHQAKISLVWQVASYCPTPGGQLDQWWPGSEYVDWVGLSYFAPQDCNWDRVNEAAQFARSKGKPLFLNESTPQRYQVADLTYSADPAKGTNRQSKTSQQLWDEWFAPYFQFMSDNSDIVKGFTYINADWDSQWRWAAPYNEGYWGDSRVQANALIKSNWQQEIAKGQYINHSETLFETLGYGSTHHHHHH”, which “soluble on expression in E. coli” value is on record?
The value was “soluble”.

Which “soluble on expression in E. coli” value does the source give for “MAHHHHHHMNKTKIESSYFTYQNNHSKIGNPILYKGEVIGMEIIDIRVKDDVEGLFNVCSCYLDNEHHAYNKCSESDIHYMQISSIRIIIKIVHNINILTGKKLHINLQDYVTPYPIKSAFIIKKVEHYSCNNINNKSFNEIQEHFYNNEKKLKFYNIFLYETDLQEFKEDIIFENPGMYLLCYTSNDSQSEYSAELSTILVNGNY” here?
Its value is “not soluble”.

For “MSLGNFHTMLDALLEDQEEAVLATIVQVEGSAYRKAGASMLFKKKGRRIGLLSGGCVEEDVFQRISALGDQLTSTLIPYDMRSEDDLSWGMGAGCNGIIHVHAERITQEKRRHYEKVRDCLHSGKAVTSVIKIESSHYLFLTENGHFGNWPDAPLQDIQRTVSTLHLPHFDQTTNMFIQRIEPKPRLILFGAGPDNVPLANLAADTGFSVIVTDWRPAYCTSSLFPKADQLITAFPEQMLSEFQFFPHDAAVVATHHYQHDQTIINFLFSQNLHYIGLLGSANRTKRLLSGKHPPSHFYSPVGLKIGAEGPEEIAVSVVAEIIQTRKRVAVVEGGSHHHHHH”, which “soluble on expression in E. coli” value is on record?
The value was “soluble”.

Which “soluble on expression in E. coli” value does the source give for “MENGCGKMESFSPQALEMIRSLGTTHIWYIGMLEQATQTNYSDAGILPCHPEIVKGKAGSPYAVRDYYDVSPELATNIPNRMAEFHDLIERTHRAGMGVIMDFVPNHVAREYRSDVKPSGTKDLGEEDDPLVAFSPNNNFYYLPGKCLELDFGERSRTMMPYHEEPARATGNDRFSSHIDKEDWYETVKLNYGIDYLNGGSKHFDPLPDTWIRMRDILLFWASKGIDGFRCDMAEMVPVKFWEWAIPQIRERHSVLFIAEIYRPELYESYLQAGFDYLYDKVGMYDCLRTVICGYGSASDISRVVRQTERFADNMLYFLENHDEQRIASDFFAEDARKALPAVTIAATIGRNPFMLYFAQELGERGMDAEGFSGKDGRTTIFDYWSLDKMQRRINDGRYDTTMLSEEERLLLQSYTRLLHDVCALPSVIQGSFYDLGYANQNNPYFRPNREFAFLRHTTDEILLVAANFAPHEAEIRVIIPEHAFQTMQIKDNAAFLLTDMLSGENSIGCLTQYAPYPLHLPAYGYALHRFRPL” here?
Its value is “not soluble”.

For “MNYHQYYPIDVVNGPGTRCTLFVSGCVHQCKGCYNQSTWSLSSGHRYTQEMEDKIIADLKDTRIKRRGLSLSGGDPMHPANLSAVLQLVQRVKTECPDKDIWLWTGYTLAELDDSQQALLPYIDVLVDGKFIQEQADPGLEWRGSANQVIHRFTLLEHHHHHH”, which “soluble on expression in E. coli” value is on record?
The value was “not soluble”.

For “MGSDKIHHHHHHMGKVYVIGNFKGGVGKTKTVTMLAYESALQLGRKTLVIDLDPQGNATRVLAKTGDLAEITYTVTEAFQEGSLEPAITNISENLDLIPANTAFRNLTKILMTKFPSNEFDQINYLNTLLKPLKEKYDAIYIDVPPTISDFSDNAMLAADYCIIVLQTQELSLDGAQTYIAYMQYLADTYDNDLQVLGIIPCMLRPGGRVDNKVLEQAKELYGGNVLNTVVKYQERLKVYDVEGIKISHNYTGKADGWDVKAHKVFIDVLNELDQHQLVLEELEG”, which “soluble on expression in E. coli” value is on record?
Its value is “not soluble”.

With “GSMSTKNFRVSDGDWICPDKKCGNVNFARRTSCDRCGREKTTGPI” as the sequence, how does the “soluble on expression in E. coli” value read?
Its value is “soluble”.

With “MTYEIVIAGFGGQGVLSMGKILAYSGLMEDKEVSWMPSYGPEQRGGTSNVTVIVSDEQVSSPVLNEYDIVIVLNQPSLDKFEARVKKGGILVYDPDSIVLKNKRDDIQIYEVDATQESLRMGNQKAFNMIVLGGVLKVAPMVKIESVIKGLKKTLPERHHKLIPMNEQAIQRGMEIIKQIH” as the sequence, how does the “soluble on expression in E. coli” value read?
Its value is “not soluble”.

With “MALDQSLVGRSYPPTAPYEVGREKIREFAEAVGDANPAYTDAEAAKALGHPDVIAPPTFVFSITFKAAGQVIEDPQLGLDYSRVVHGDQKFSYARPVRAGDRLTVTSTIEAIKSMAGNDILDIRGEVHDEAGEHVVTAWTKLVARAAEEALEHHHHHH” as the sequence, how does the “soluble on expression in E. coli” value read?
Its value is “soluble”.
